Results published in patent US20190338002A1 (Pieris, published 2019).

T1: human alpha CGRP (SEQ ID NO: 80) (human, not fully specified)
T1 peptide: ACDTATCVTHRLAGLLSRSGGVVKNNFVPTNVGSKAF

T2: human beta CGRP (SEQ ID NO: 81) (human, not fully specified)
T2 peptide: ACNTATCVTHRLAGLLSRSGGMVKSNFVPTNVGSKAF

T3: rat alpha CGRP (SEQ ID NO: 82) (rat)
T3 peptide: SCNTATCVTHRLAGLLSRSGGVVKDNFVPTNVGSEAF

T4: rat beta CGRP (SEQ ID NO: 83) (rat, not fully specified)
T4 peptide: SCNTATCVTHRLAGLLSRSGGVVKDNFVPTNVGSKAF

B1: cysteine-free lipocalin mutein SEQ ID NO: 29 (designed binder)
chain: QDSTSDLIPAPPLSKVPLQQNFQDNQFQGKWYVVGRAGNDVLREDKDPEKMEATIYELKEDKSYNVTDVGFVQKRLMYVTHTFVPGSQPGEFTLGNIESYPGVTSALVRVVSTDYNQHAMVFVKLVKQNRELFEITLYGRTKELTSELKENFIRFSKSLGLPENHIVFPVPIDQIDGSAWSHPQFEK
notes: biotinylated by NHS chemistry for capture in SPR
B2: cysteine-free lipocalin mutein SEQ ID NO: 30 (designed binder)
chain: QDSTSDLIPAPPLSKVPLQQNFQDNQFQGKWYVVGRAGNDVLREDKDPEKMEATIYELKEDKSYNVTDVGFVQKRYMYVTHTFVPGSQPGEFTLGNIESYPGVTSALVRVVSTDYNQHAMVFVKLVKQNRELFEITLYGRTKELTSELKENFIRFSKSLGLPENHIVFPVPIDQIDGSAWSHPQFEK
notes: as for B1
B3: lipocalin mutein SEQ ID NO: 25 (designed binder)
chain: QDSTSDLIPAPPLSKVPLQQNFQDNQFHGKWYVVGWAGNTLLREDKDPIKMQAKIYELKEDRSYNVTWVYFADKKCNYHIETFVPGSQPGEFTLGTIKSYPGETPILVRVVSTNYNQHAMVFFKGVNQNREIFEIILYGRTKELTNELKENFIRFSKSLGLPENHIVFPVPIDQCIDGSAWSHPQFEK
notes: as for B1
B4: lipocalin mutein SEQ ID NO: 27 (designed binder)
chain: QDSTSDLIPAPPLSKVPLQQNFQDNQFHGKWYVVGWAGNTLLREDKDPIKMQAMIYELKEDKSYNVTWVYFADKKCNYHIETFVPGSQPGEFTLGTIKSYPGETPILVRVVSTNYNQHAMVFFKGVNQNREIFEIVLYGRTKELTNELKENFIRFSKSLGLPENHIVFPVPIDQCIDGSAWSHPQFEK
notes: as for B1
B5: cysteine-free lipocalin mutein SEQ ID NO: 38 (designed binder)
chain: QDSTSDLIPAPPLSKVPLQQNFQDNQFQGKWYVVGWAGNTLLREDKDPIKMQAMIYELKEDKSYNVTWVYFADKKRNYHIETFVPGSQPGEFTLGTIKSYPGETPILVRVVSTNYNQHAMVFFKGVNQNREIFEIVLYGRTKELTNELKENFIRFSKSLGLPENHIVFPVPIDQVIDGSAWSHPQFEK
notes: as for B1
B6: cysteine-free lipocalin mutein SEQ ID NO: 35 (designed binder)
chain: QDSTSDLIPAPPLSKVPLQQNFQDNQFQGKWYVVGWAGNTLLREDKDPIKMQAMIYELKEDKSYNVTWVYFADKKVNYHIETFVPGSQPGEFTLGTIKSYPGETPILVRVVSTNYNQHAMVFFKGVNQNREIFEIVLYGRTKELTNELKENFIRFSKSLGLPENHIVFPVPIDQYIDGSAWSHPQFEK
notes: as for B1
B7: cysteine-free lipocalin mutein SEQ ID NO: 40 (designed binder)
chain: QDSTSDLIPAPPLSKVPLQQNFQDNQFQGKWYVVGWAGNTLLREDKDPIKMQAMIYELKEDKSYNVTWVYFADKKFNYHIETFVPGSQPGEFTLGTIKSYPGETPILVRVVSTNYNQHAMVFFKGVNQNREIFEIVLYGRTKELTNELKENFIRFSKSLGLPENHIVFPVPIDQDIDGSAWSHPQFEK
notes: as for B1
B8: cysteine-free lipocalin mutein SEQ ID NO: 39 (designed binder)
chain: QDSTSDLIPAPPLSKVPLQQNFQDNQFQGKWYVVGWAGNTLLREDKDPIKMQAMIYELKEDKSYNVTWVYFADKKKNYHIETFVPGSQPGEFTLGTIKSYPGETPILVRVVSTNYNQHAMVFFKGVNQNREIFEIVLYGRTKELTNELKENFIRFSKSLGLPENHIVFPVPIDQDIDGSAWSHPQFEK
notes: as for B1
B9: cysteine-free lipocalin mutein SEQ ID NO: 34 (designed binder)
chain: QDSTSDLIPAPPLSKVPLQQNFQDNQFQGKWYVVGWAGNTLLREDKDPIKMQAMIYELKEDKSYNVTWVYFADKKINYHIETFVPGSQPGEFTLGTIKSYPGETPILVRVVSTNYNQHAMVFFKGVNQNREIFEIVLYGRTKELTNELKENFIRFSKSLGLPENHIVFPVPIDQEIDGSAWSHPQFEK
notes: as for B1
B10: cysteine-free lipocalin mutein SEQ ID NO: 37 (designed binder)
chain: QDSTSDLIPAPPLSKVPLQQNFQDNQFQGKWYVVGWAGNTLLREDKDPIKMQAMIYELKEDKSYNVTWVYFADKKNNYHIETFVPGSQPGEFTLGTIKSYPGETPILVRVVSTNYNQHAMVFFKGVNQNREIFEIVLYGRTKELTNELKENFIRFSKSLGLPENHIVFPVPIDQLIDGSAWSHPQFEK
notes: as for B1
B11: cysteine-free lipocalin mutein SEQ ID NO: 36 (designed binder)
chain: QDSTSDLIPAPPLSKVPLQQNFQDNQFQGKWYVVGWAGNTLLREDKDPIKMQAMIYELKEDKSYNVTWVYFADKKRNYHIETFVPGSQPGEFTLGTIKSYPGETPILVRVVSTNYNQHAMVFFKGVNQNREIFEIVLYGRTKELTNELKENFIRFSKSLGLPENHIVFPVPIDQWIDGSAWSHPQFEK
notes: as for B1
B12: lipocalin mutein SEQ ID NO: 18 (designed binder)
chain: QDSTSDLIPAPPLSKVPLQQNFQDNQFHGKWYVVGRAANDVLRDDNDPEKMEATIYELKEDKSYNVTDVGFVQKKCMYVVHTFVPGSQPGEFTLGNIKSYPGVTSALVRVVSTNYNQHAMVFFKLVKQNRELFEVTLYGRTKELTSELKENFIRFSKSLGLPENHIVFPVPIDQCIDGSAWSHPQFEK

Columns and labels:
[1] = target: T1, human alpha CGRP (SEQ ID NO: 80); assay: cell-based or functional assay
[2] = target: T2, human beta CGRP (SEQ ID NO: 81); assay: cell-based or functional assay
[3] = target: T1, human alpha CGRP (SEQ ID NO: 80); assay: SPR as in Example 5
Experimental: (§1) The Biotin CAPture Kit (GE Healthcare) was used to immobilize biotinylated lipocalin muteins to a chip surface. Muteins were biotinylated using standard NHS chemistry. Undiluted Biotin CAPture Reagent (streptavidin conjugated with ss-DNA oligo) was captured on a Sensor Chip CAP with the pre-immobilized complementary ss-DNA oligo. Thereafter, biotinylated muteins at 1 μg/mL were applied for 300 s at a flow rate of 5 μL/min.
(§2) CGRP species were applied in three concentrations of 30 nM, 3 nM and 0.3 nM at a flow rate of 30 μL/min or in a single concentration of 25 nM per cycle as shown in FIG. 2. The dilutions were injected with association times of 180 s and dissociation times of 5400 sec to obtain ka and kd information. Regeneration of the chip surface was achieved by injecting 6 M Guanidinium-HCl+0.25 M NaOH (120 s) with a flow rate of 10 μL/min. Injection of regeneration solutions was followed by an extra wash step with HBS-EP+(1×; BR-1006-69; GE Healthcare) running buffer and a stabilization period of 120 s.

[4] = target: T2, human beta CGRP (SEQ ID NO: 81); assay: SPR as in Example 5
Experimental: as §1, §2

[5] = target: T1, human alpha CGRP (SEQ ID NO: 80); assay: cell-based or functional assay
[6] = target: T3, rat alpha CGRP (SEQ ID NO: 82); assay: cell-based or functional assay
[7] = target: T2, human beta CGRP (SEQ ID NO: 81); assay: cell-based or functional assay
[8] = target: T4, rat beta CGRP (SEQ ID NO: 83); assay: cell-based or functional assay
[9] = target: T1, human alpha CGRP (SEQ ID NO: 80); assay: SPR, 37 C, mutein captured, CGRP analyte
Experimental: as §1, §2
(§3) The data were double-referenced by subtraction of the corresponding signals measured for the control channel (loaded with Biotin CAPture reagent only) and by subtraction of buffer injections from the binding responses. Association rate constant ka and dissociation rate constant kd for the binding reaction were determined using Biacore T200 Evaluation Software V2.0 for data processing and kinetic fitting. The data were globally fit with 1:1 binding model.

[10] = target: T3, rat alpha CGRP (SEQ ID NO: 82); assay: SPR, 37 C, mutein captured, CGRP analyte
Experimental: as §1, §2, §3

[11] = target: T2, human beta CGRP (SEQ ID NO: 81); assay: SPR, 37 C, mutein captured, CGRP analyte
Experimental: as §1, §2, §3

[12] = target: T4, rat beta CGRP (SEQ ID NO: 83); assay: SPR, 37 C, mutein captured, CGRP analyte
Experimental: as §1, §2, §3

Row | Binder | cAMP assay IC50, SK-N-MC cells [1] [nM] | cAMP assay IC50, SK-N-MC cells [2] [nM] | Kd [3] [nM] | Kd [4] [nM] | also measured
1 | B1 | 0.14 | 0.91 | 0.065 | 0.05 | 
2 | B2 | 0.22 | 1.32 | 0.109 | 0.075 | 
3 | B3 |  |  |  |  | IC50, CGRP-induced cAMP production, SK-N-MC cells [5]: 0.15 nM; IC50, CGRP-induced cAMP production, L6 cells [6]: 0.06 nM; IC50, CGRP-induced cAMP production, SK-N-MC cells [7]: 0.19 nM; IC50, CGRP-induced cAMP production, L6 cells [8]: 0.16 nM; Kd [9]: 0.006 nM; koff [9]: 1.65e-05 s⁻¹; kon [9]: 2.68e+06 M⁻¹ s⁻¹; Kd [10]: 0.016 nM; koff [10]: 2.12e-05 s⁻¹; kon [10]: 1.3e+06 M⁻¹ s⁻¹; Kd [11]: 0.005 nM; koff [11]: 1.01e-05 s⁻¹; kon [11]: 2.02e+06 M⁻¹ s⁻¹; Kd [12]: 0.008 nM; koff [12]: 1.33e-05 s⁻¹; kon [12]: 1.64e+06 M⁻¹ s⁻¹
4 | B4 | 0.1 | 0.12 | 0.038 | 0.007 | IC50, CGRP-induced cAMP production, SK-N-MC cells [5]: 0.1 nM; IC50, CGRP-induced cAMP production, SK-N-MC cells [7]: 0.12 nM; Kd [9]: 0.018 nM; koff [9]: 2.59e-05 s⁻¹; kon [9]: 1.43e+06 M⁻¹ s⁻¹; Kd [10]: 0.038 nM; koff [10]: 3.1e-05 s⁻¹; kon [10]: 807000 M⁻¹ s⁻¹; Kd [11]: 0.011 nM; koff [11]: 2.26e-05 s⁻¹; kon [11]: 2.04e+06 M⁻¹ s⁻¹; Kd [12]: 0.018 nM; koff [12]: 2.64e-05 s⁻¹; kon [12]: 1.5e+06 M⁻¹ s⁻¹
5 | B5 | 0.21 | 3.16 | 0.059 | 0.026 | 
6 | B6 | 0.15 | 0.27 | 0.045 | 0.017 | 
7 | B7 | 0.18 | 0.42 | 0.07 | 0.023 | 
8 | B8 | 0.21 | 1.03 | 0.062 | 0.034 | 
9 | B9 | 0.12 | 0.29 | 0.041 | 0.025 | 
10 | B10 | 0.16 | 0.77 | 0.055 | 0.023 | 
11 | B11 | 0.25 | 0.81 | 0.046 | 0.022 | 
12 | B12 |  |  |  |  | IC50, CGRP-induced cAMP production, SK-N-MC cells [5]: 0.19 nM; IC50, CGRP-induced cAMP production, L6 cells [6]: 0.06 nM; IC50, CGRP-induced cAMP production, SK-N-MC cells [7]: 0.29 nM; IC50, CGRP-induced cAMP production, L6 cells [8]: 0.14 nM
